This note sets out measurements from US20120058906A1 (published 2012).

In assay [1] the target is T1, rHuman IGF-1 sR (IGF-1 sR), CF (R&D Systems Cat#391-GR) (human, UniProt P08069 31-932).
T1 construct: Purchased soluble receptor; also called insulin-like growth factor-1 soluble receptor; IGF-R1
The assay is described as follows: MSD ECL multi-spot plate, antigen immobilized; Fab 200 nM; blank spot 529.

The target of assay [2] is T2, rHuman P-Cadherin/Fc Chimera, CF (R&D Systems Cat#861-PC) (human, UniProt P22223 108-654).
T2 construct: Purchased Fc chimera; not shown: Fc portion of the purchased chimera
Described as above.

Assay [3] addresses T3, rHuman Erythropoietin R/Fc Chimera, CF (R&D Systems Cat#963-ER) (human, UniProt P19235 25-250).
T3 construct: Purchased Fc chimera; also called EPO R/Fc; Epo R; not shown: Fc portion of the purchased chimera
T3 sequence: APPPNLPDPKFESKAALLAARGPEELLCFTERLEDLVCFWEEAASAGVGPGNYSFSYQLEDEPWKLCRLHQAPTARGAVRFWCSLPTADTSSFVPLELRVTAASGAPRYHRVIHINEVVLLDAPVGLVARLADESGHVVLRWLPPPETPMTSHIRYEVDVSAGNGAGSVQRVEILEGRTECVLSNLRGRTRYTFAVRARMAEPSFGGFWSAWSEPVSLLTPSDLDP
The description is as above.

Assay [4] addresses T4, Recombinant Human DLL4 (R&D Systems Cat#1506-D4/CF) (human, UniProt Q9NR61 27-524).
T4 construct: Purchased recombinant protein; also called delta-like protein 4
The assay is described as above.

Assay [5] addresses T5, rHuman ErbB2/Fc Chimera, CF (R&D Systems Cat#1129-ER) (human, UniProt P04626 23-652).
T5 construct: Purchased Fc chimera; also called HER2/neu; not shown: Fc portion of the purchased chimera
The description is as above.

The target in assay [6] is T6, rHuman HGF R/c-MET/Fc Chimera, CF (R&D Systems Cat#358-MT/CF) (human, UniProt P08581 25-932).
T6 construct: Purchased Fc chimera; also called HGF R/Fc; not shown: Fc portion of the purchased chimera
Described as above.

The target of assay [7] is T7, rHuman Notch-1/Fc Chimera, CF (R&D Systems Cat#3647-TK) (human, UniProt P46531 19-526).
T7 construct: Purchased Fc chimera; not shown: Fc portion of the purchased chimera
The assay is described as above.

For assay [8], the target named is T8, rHuman CD44/Fc Chimera, CF (R&D Systems Cat#3660-CD) (human, UniProt P16070 21-220).
T8 construct: Purchased Fc chimera; not shown: Fc portion of the purchased chimera
The description is as above.

Assay [9] concerns the target T9, rHuman IGF-1 sR (insulin-like growth factor-1 soluble receptor), CF (R&D Systems Cat#391-GR) (human, UniProt P08069 31-932).
T9 construct: Bought soluble receptor; also called IGF-R1
Kind of assay: ECL (MSD multi-spot), antigen on plate, Fab 50 nM.

Assay [10] has as its target T10, rHuman P-Cadherin/Fc Chimera, CF (R&D Systems Cat#861-PC) (human, UniProt P22223 108-654).
T10 construct: Bought Fc chimera; also called CDH3; not shown: Fc of the bought chimera
The assay is described as follows: ECL (MSD multi-spot), antigen on plate, Fab 50 nM.

Assay [11] deals with T11, rHuman Erythropoietin R/Fc Chimera, CF (R&D Systems Cat#963-ER) (human, UniProt P19235 25-250).
T11 construct: Bought Fc chimera; also called EPO R/Fc; Epo R; not shown: Fc of the bought chimera
T11 sequence: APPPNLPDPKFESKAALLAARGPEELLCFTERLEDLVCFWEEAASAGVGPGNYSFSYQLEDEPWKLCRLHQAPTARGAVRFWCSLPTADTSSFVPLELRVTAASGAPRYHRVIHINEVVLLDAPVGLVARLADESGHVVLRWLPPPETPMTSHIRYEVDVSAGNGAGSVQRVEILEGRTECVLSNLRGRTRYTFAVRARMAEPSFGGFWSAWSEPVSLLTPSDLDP
The assay is described as follows: ECL (MSD multi-spot), antigen on plate, Fab 50 nM.

The target of assay [12] is T12, Recombinant Human DLL4 (R&D Systems Cat#1506-D4/CF) (human, UniProt Q9NR61 27-524).
T12 construct: Bought recombinant protein; also called delta-like protein 4
The assay is described as follows: ECL (MSD multi-spot), antigen on plate, Fab 50 nM.

Assay [13] deals with T13, rHuman ErbB2/Fc Chimera, CF (R&D Systems Cat#1129-ER) (human, UniProt P04626 23-652).
T13 construct: Bought Fc chimera; also called HER2/neu; not shown: Fc of the bought chimera
The assay is described as follows: ECL (MSD multi-spot), antigen on plate, Fab 50 nM.

The target in assay [14] is T14, rHuman EGF R/Fc Chimera, CF (R&D Systems Cat#344-ER) (human, UniProt P00533 25-645).
T14 construct: Bought Fc chimera; also called ErbB-1; not shown: Fc of the bought chimera
The assay is described as follows: ECL (MSD multi-spot), antigen on plate, Fab 50 nM.

Assay [15] addresses T15, rHuman HGF R/c-MET/Fc Chimera, CF (R&D Systems Cat#358-MT/CF) (human, UniProt P08581 25-932).
T15 construct: Bought Fc chimera; also called HGF R/Fc; not shown: Fc of the bought chimera
The assay is described as follows: ECL (MSD multi-spot), antigen on plate, Fab 50 nM.

Assay [16] deals with T16, rHuman Notch-1/Fc Chimera, CF (R&D Systems Cat#3647-TK) (human, UniProt P46531 19-526).
T16 construct: Bought Fc chimera; not shown: Fc of the bought chimera
The assay is described as follows: ECL (MSD multi-spot), antigen on plate, Fab 50 nM.

Assay [17] has as its target T17, rHuman CD44/Fc Chimera, CF (R&D Systems Cat#3660-CD) (human, UniProt P16070 21-220).
T17 construct: Bought Fc chimera; not shown: Fc of the bought chimera
The assay is described as follows: ECL (MSD multi-spot), antigen on plate, Fab 50 nM.

Assay [18] concerns the target T18, rHuman Erythropoietin R/Fc Chimera, CF (R&D Systems Cat#963-ER) (human, UniProt P19235 25-250).
T18 construct: Bought Fc chimera; also called EPO R/Fc; Epo R; Fc part of the bought chimera not given
T18 sequence: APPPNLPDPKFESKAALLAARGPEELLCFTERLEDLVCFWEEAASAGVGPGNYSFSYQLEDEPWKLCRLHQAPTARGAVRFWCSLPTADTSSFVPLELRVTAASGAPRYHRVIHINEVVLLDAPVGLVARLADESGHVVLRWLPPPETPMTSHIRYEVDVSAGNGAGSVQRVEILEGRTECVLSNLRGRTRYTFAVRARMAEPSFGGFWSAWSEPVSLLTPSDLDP
Kind of assay: ECL (MSD Multi-Spot) binding assay, antigen spotted on plate; Fab 120 nM; blank spot 363.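 Also: blank spot per well as comparator with Hit at signal to blank ratio of 4 or more.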

The target in assay [19] is T19, rHuman Notch-1/Fc Chimera, CF (R&D Systems Cat#3647-TK) (human, UniProt P46531 19-526).
T19 construct: Bought Fc chimera; Fc part of the bought chimera not given
The description is as above.

B1: Fab VH5-51_IGHD5-18*01>3_IGHJ4*01_G100R & V3-4_IGLJ1*01 (Fab, V domains shown)
VH: EVQLVQSGAEVKKPGESLKISCKGSGYSFTSYWIGWVRQMPGKGLEWMGIIYPGDSDTRYSPSFQGQVTISADKSISTAYLQWSSLKASDTAMYYCARRRYSYGYDYFDYWGQGTLVTVSS
VL: QTVVTQEPSFSVSPGGTVTLTCGLSSGSVSTSYYPSWYQQTPGQAPRTLIYSTNTRSSGVPDRFSGSILGNKAALTITGAQADDESDYYCVLYMGSGISYVFGTGTKVTVL
notes: It was expressed as a Fab: CH1 with tags from Plasmid A and lambda CL from Plasmid E; also called Fab No. 23
Regarding B1, the ECL signal came to 1110 ECL signal in assay [1]; 815 ECL signal in assay [2]; 1180 ECL signal in [3]; 29800 ECL signal in [4]; 1450 ECL signal in [5]; 1160 ECL signal in assay [6]. Besides, the ECL signal in [7] turned out to be 1330 ECL signal; in assay [8] it was 895 ECL signal.

B2: Fab VH1-46_IGHD6-6*01_IGHJ1*01_S102A_S103P_S104Y_H111Y & L6_IGKJ1*01 (Fab, V domains shown)
VH: QVQLVQSGAEVKKPGASVKVSCKASGYTFTSYYMHWVRQAPGQGLEWMGIINPSGGSTSYAQKFQGRVTMTRDTSTSTVYMELSSLRSEDTAVYYCAREEYAPYSAEYFQYWGQGTLVTVSS
VL: not shown
notes: Fab made in E. coli; The heavy chain also carries CH1 with Flag and His tags from Plasmid A, and the light chain carries kappa CL from Plasmid C
With B2, the ECL signal in [9] came to 399 ECL signal; in assay [10], 470 ECL signal; in [11], 533 ECL signal; in assay [12], 201000 ECL signal; in assay [13], 470 ECL signal; in assay [14] it was 489 ECL signal. Also, the ECL signal in [15] is 312 ECL signal; in [16], 389 ECL signal; in assay [17] it was 345 ECL signal.

B3: Fab VH6-1_IGHD3-3*01_IGHJ4*01 & V4-3_IGLJ4*01 (Fab, V domains shown)
VH: QVQLQQSGPGLVKPSQTLSLTCAISGDSVSSNSAAWNWIRQSPSRGLEWLGRTYYRSKWYNDYAVSVKSRITINPDTSKNQFSLQLNSVTPEDTAVYYCAREYYDFWSGYYTDYFDYWGQGTLVTVSS
VL: QPVLTQPTSLSASPGASARLTCTLRSGINLGSYRIFWYQQKPESPPRYLLSYYSDSSKHQGSGVPSRFSGSKDASSNAGILVISGLQSEDEADYYCMIWHSSASFVFGGGTQLIIL
notes: Tested as a Fab made in E. coli; also called IGHV6-1*01
Consider B3, for which the ECL signal was found to be 431 in [18] and 472 in assay [19].
